Positions count from the first letter of the chain named. Where two headings read alike, the source gives them in different places.
B1: G08 antibody (antibody, V domains shown)
VH: QIQLQQSGPELVKPGASVKISCKASGDTFTDYYINWVKQKPGQGLEWIGWIYTGSGNTKYNEKFKGKTTLTVDTSSSTAYMQLNSLTSEDTAVYFCARYNPLITAVVPDYWGQGTTLTVSS
VL: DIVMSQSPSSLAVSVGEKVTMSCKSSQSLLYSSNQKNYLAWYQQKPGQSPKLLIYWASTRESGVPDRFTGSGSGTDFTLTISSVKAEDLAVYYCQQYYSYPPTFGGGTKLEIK
notes: Mouse variable domains from a Fab phage library of immunized mice; also called G08 clone; mAb G08
B2: B5711 (antibody, V domains shown)
VH: B1 VH
VL: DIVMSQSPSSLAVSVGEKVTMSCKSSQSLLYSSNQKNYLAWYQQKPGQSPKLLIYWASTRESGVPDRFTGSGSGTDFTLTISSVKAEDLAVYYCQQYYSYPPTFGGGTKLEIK
notes: Expressed in 293F cells, purified by protein G
B3: B5712 (antibody, V domains shown)
VH: QVQLVQSGAEVKKPGASVKVSCKASGDTFTDYYINWVRQAPGQGLEWMGWIYTGSGNTKYNEKFKGRVTMTRDTSISTAYMELSRLRSDDTAVYYCARYNPLITAVVPDYWGQGTTVTVSS
VL: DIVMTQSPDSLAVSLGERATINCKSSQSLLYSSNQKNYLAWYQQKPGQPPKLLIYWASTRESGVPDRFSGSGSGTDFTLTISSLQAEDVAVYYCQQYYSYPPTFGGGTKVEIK
notes: Humanized; also called HSP206A-CDRG
B4: B5715 (antibody, V domains shown)
VH: B3 VH with D27Y, T53P, G56A, N61S, F64V, Y99N, N100D
VL: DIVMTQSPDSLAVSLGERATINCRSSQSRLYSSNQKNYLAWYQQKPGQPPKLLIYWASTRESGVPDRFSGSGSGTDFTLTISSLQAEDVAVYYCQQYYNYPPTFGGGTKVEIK
notes: Humanized; also called HSP206B-CDRG
B5: B5713 (antibody, V domains shown)
VH: B3 VH with V2I, R72V
VL: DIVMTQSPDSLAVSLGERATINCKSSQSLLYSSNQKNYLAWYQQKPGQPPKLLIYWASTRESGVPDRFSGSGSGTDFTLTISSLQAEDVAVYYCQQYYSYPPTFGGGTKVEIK
notes: Humanized
B6: B5716 (antibody, V domains shown)
VH: QIQLVQSGAEVKKPGASVKVSCKASGYTFTDYYINWVRQAPGQGLEWMGWIYPGSANTKYSEKVKGRVTMTVDTSITTAYMELSRLRSDDTAVYYCTRNDPLITAVVPDYWGQGTTVTVSS
VL: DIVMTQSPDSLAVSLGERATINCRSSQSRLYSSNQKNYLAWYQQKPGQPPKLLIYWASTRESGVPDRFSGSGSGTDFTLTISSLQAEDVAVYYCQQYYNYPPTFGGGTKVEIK
notes: Humanized
B7: B5714 (antibody, V domains shown)
VH: QIQLQQSGPELVKPGASVKISCKASGYTFTDYYINWVKQKPGQGPEWIGWIYPGSANTKYSEKVKGKATLTVDTSSTTAYMQLSSLTSDDTAVYFCTRNDPLITAVVPDYWGQGTTLTVSS
VL: DIVMSQSPSSLAVSVGEKVTMSCRSSQSRLYSSNQKNYLAWYQQKPGQSPKLLIYWASTRESGVPDRFTGSGSGTDFTLTISSVKAEDLAVYYCQQYYNYPPTFGGGTKLEIK
B8: H06 antibody (antibody, V domains shown)
VH: B7 VH
VL: B7 VL
notes: Mouse variable domains from a Fab phage library of immunized mice; also called H06 clone; mAb H06

Legend:
[1] = target: T1, human CD47-His protein (human, UniProt Q08722 19-139); assay: ELISA, purified antibody titrated on CD47-His protein, OD 450nm
T1 construct: Recombinant human CD47 with His tag; also called human CD47-his tag protein; CD47 antigen; not shown: His tag
T1 sequence (Q08722 19-139 limits assumed): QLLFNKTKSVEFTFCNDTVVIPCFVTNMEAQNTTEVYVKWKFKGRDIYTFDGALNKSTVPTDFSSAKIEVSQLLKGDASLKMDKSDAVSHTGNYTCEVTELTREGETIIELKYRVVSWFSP

[2] = target: T2, Tag2-CD47 (UniProt Q08722 19-139); assay: HTRF blocking assay, ratio 665 nm/615 nm; blocked ligand: Tag1-SIRP-α binding to Tag2-CD47
T2 construct: Tagged reagent of the HTRF assay; also called CD47 (HTRF assay)
T2 sequence (Q08722 19-139): as the sequence (Q08722 19-139 limits assumed) above
Source text: (§1) To further evaluate the functions of the mouse anti-huCD47 mAbs on blocking SIRP-α interaction, the HTRF assay was employed. The interaction between Tag1-SIRP-α and Tag2-CD47 was detected by using anti-Tag1-Terbium (HTRF donor) and anti-Tag2-XL665 (HTRF acceptor). When the donor and acceptor antibodies were brought into close proximity due to SIRP-α and CD47 binding, excitation of the donor antibody triggered fluorescent resonance energy transfer (FRET) towards the acceptor antibody, which in turn emits specifically at 665 nm. This specific signal is directly proportional to the extent of CD47/SIRP-α interaction. Thus, a molecule blocking CD47/SIRP-α interaction would cause a reduction in HTRF signal.
G08 and H06 antibodies were evaluated for their activity to blocking the interaction of CD47 and SIRP-α.

[3] = target: T1, human CD47-His protein; assay: ELISA on human CD47-His protein, OD 450nm
[4] = target: T3, cyno CD47-His protein (cynomolgus, UniProt A0A2K5X523 19-139); assay: ELISA on cyno CD47-His protein, OD 450nm [Cont'd) B]
T3 construct: also called cynomolgus CD47; not shown: His tag

[5] = target: T2, Tag2-CD47; assay: HTRF blocking assay, ratio 665 nm/615 nm; blocked ligand: Tag1-SIRP-α binding to Tag2-CD47; remark: listed apart in the source
Source text: as §1, with “To” for “To further”, “activities” for “functions”, “humanized” for “the mouse”, “triggers” for “triggered”, “emitted” for “emits”
Anti-CD47 antibodies B5711, B5712, B5713, B5714, B5715, and B5716 were evaluated on their activities in blocking the interaction of CD47 and SIRP-α.

[6] = target: T1, human CD47-His protein; assay: SPR (Biacore) affinity ranking, antibody captured on protein A chip, 5 nM human CD47-his injected
Procedure: (§2) To explore the binding kinetics of the humanized antibody, this example performed the affinity ranking using biacore. B5711, B5712, B5713, B5714, B5715 and B5716 mAbs were captured using protein A chip. 5 nM of human CD47-his tag protein was injected over captured antibodies for 120s at a flow rate of 30 μL/min. The antigen was allowed to dissociate for 130s.

[7] = target: T1, human CD47-His protein; assay: SPR (Biacore) affinity ranking, antibody captured on protein A chip, 5 nM human CD47-his injected; affinity ranking, single 5 nM injection of human CD47-his, 130s dissociation
Procedure: as §2

[8] = target: T1, human CD47-His protein; assay: SPR (Biacore T200) full kinetics, antibody captured on protein A chip, serial dilution of human CD47-his injected
Procedure: The binding of the humanized antibodies to recombinant CD47 protein (human CD47-his tag) was tested by BIACORE™ using a capture method. B5712 and B5715 mAbs were captured using protein A chip. A serial dilution of human CD47-his tag protein was injected over captured antibody for 120s at a flow rate of […]. The antigen was allowed to dissociate for 600s. All the experiments were carried out on a Biacore T200.

Binder | EC50 [1] | IC50 [2] | EC50 [3] | EC50 [4] | IC50 [5] | Kd [6] | koff [6] | kon [7] | kon [6] | Kd [8] | koff [8] | kon [8]
B1 | 5.93 ng/mL | 0.27 nM |  |  |  |  |  |  |  |  |  | 
B2 |  |  | 4.96 ng/mL | 7.95 ng/mL | 0.17 nM | 0.819 nM | 0.00383 s⁻¹ | 4.67e+06 M⁻¹ s⁻¹ |  |  |  | 
B3 |  |  | 5.35 ng/mL | 10.2 ng/mL | 0.16 nM | 1.28 nM | 0.00276 s⁻¹ |  | 2.15e+06 M⁻¹ s⁻¹ | 0.847 nM | 0.00128 s⁻¹ | 1.51e+06 M⁻¹ s⁻¹
B4 |  |  | 7.09 ng/mL | 9.23 ng/mL | 0.16 nM | 0.979 nM | 0.00234 s⁻¹ |  | 2.39e+06 M⁻¹ s⁻¹ | 0.56 nM | 0.000287 s⁻¹ | 513000 M⁻¹ s⁻¹
B5 |  |  | 7.6 ng/mL | 9.5 ng/mL | 0.21 nM | 1 nM | 0.00353 s⁻¹ |  | 3.53e+06 M⁻¹ s⁻¹ |  |  | 
B6 |  |  | 11.5 ng/mL | 9.79 ng/mL | 0.138 nM | 0.547 nM | 0.00452 s⁻¹ |  | 8.26e+06 M⁻¹ s⁻¹ |  |  | 
B7 |  |  | 6.49 ng/mL | 8.45 ng/mL | 0.14 nM | 1.54 nM | 0.00291 s⁻¹ |  | 1.89e+06 M⁻¹ s⁻¹ |  |  | 
B8 | 5.39 ng/mL | 0.21 nM |  |  |  |  |  |  |  |  |  | 
